Data on 6 variants can be found in publication PMC10238197, “Deafness‐Associated ADGRV1 Mutation Impairs USH2A Stability through Improper Phosphorylation of WHRN and WDSUB1 Recruitment” (Advanced Science, 2023).

To fix the notation:
B1: Flag-WHRN (wild type) [mouse] / GFP-WDSUB1 (WD repeat, SAM, and U-box domain-containing protein 1) [mouse] (parent)
chain 1: MNAQLDGLSVSSSSTGSLGSAAAAAGGGGGAGLRLLSANVRQLHQALTALLSEPEREQFTHCLNAYHARRNVFDLVRTLRVLLDSPVKRRLLPMLRLVIPRSDQLLFDQYTAEGLYLPATTPYRQPAWAAPDGAGPGEVRLVSLRRAKAHEGLGFSIRGGSEHGVGIYVSLVEPGSLAEKEGLRVGDQILRVNDKSLARVTHAEAVKALKGSKKLVLSVYSAGRIPGGYVTNHIYTWVDPQGRSTSPPSSLPQPHGSTLRQREDDRRSTLHLLQSGDEKKVNLVLGDGRSLGLTIRGGAEYGLGIYITGVDPGSEAESSGLKVGDQILEVNGRSFLNILHDEAVKLLKSSRHLILTVKDVGRLPHARTTVDQTKWIASSRIGESVANSAGFPGDHTEEGTSKPGFYKGPAGSQVTLSSLGNQTRALLDDQARHLLTEQERATMMYYLAQYRGGTISVEAMVMALFELLNTHAKFSLLSEVRSIISPQDLDRFDHLVLRREIESMKARQPPGPGVGDTYSMVSYSDTGSSTGSHGTSTTVSSARERLLWLIDLMENTLDLEGTGETTQGSTNALPDVSVDDVKSPSEDLPGIKPPPPPPPLAQGHDRLLGQPRKPGREDPAPLSSAAHSGIVFSAPRNRSPPPGTAPTPGPSSAQDSPSSPIYASISHANPSSRKPLDTHLALVNQHPIGPFPRVQSPPHLKSPPAETPGAGACLPPPSPSEHPDAVGANQHFVLVEVHRPDSEPDVNEVRALPQTRTASTLSQLSDSGQTLSEDSGVDAGETEASTSGRGRQTASAKNKNGKEQPRTERTAEGANKPPGLLEPTSTLVRVRKSAATLGIAIEGGANTRQPLPRIVTIQRGGSAHNCGQLKVGHVILEVNGQTLRGKEHKEAARIIAEAFKTKERDYIDFLVTEFNVML
chain 2: MVRLIHTLADHGDDVSCCAFSAALLATCSLDKTIRLYSLSDFAELPYSPLKFHTYAVHCCCFSPSGHVLASCSTDGTTVLWSSHSGHTLTVLEQPGGSPVRVCCFSPDSAYLASGAADGSIALWNAQTYKLYRCGSVKDSSLVACAFSPDGGLFVTGSSGGDLTVWDDRMRCLHSEKAHDLGITCCSFSSQPLSGGEGLQSYQLASCGQDCEIKLWAVTITRVLGFELKYKSTLSGHCAPVLACAFSHDGKMLASGSVDKSVIIHGIGPQSVLHTLTQHTRYVTTCAFAPNTLLLATGSMDKTVNIWQFDLETPCQGSMNDPLKHFTEEWSEEDVSVWLRAQGLEDLVGIFRANNIDGKELLHLTKESLAGDLKIESLGLRSKVLRSIEELRAKMDSLSSGIPDEFICPITRELMKDPVIASDGYSYEREAMESWIHKKKRTSPMTNLALPSLVLTPNRTLKMAINRWLETHEK

The variants in the assay derive from B1. As to the kind of experiment: co-immunoprecipitation (band intensity quantified). As to conditions: with GFP-WDSUB1 (WD repeat, SAM, and U-box domain-containing protein 1) [mouse]; HEK293 cells; n = 3; parent: 1; read off a plot.
Take chain 1 S384E: the ratio to parent came to 1.
chain 1 S37E: the ratio to parent stood at 1.
For chain 1 S156E, the ratio to parent was found to be 1.8.
chain 1 S246E: the ratio to parent amounted to 2.1.
For chain 1 S85E, the ratio to parent came to 1.
As to chain 1 S156E S246E, the ratio to parent was 2.6.
